The series concerns the molecule itself. In words: solid state NMR.

B1: His-tagged TDP-43-LC (low complexity domain of the TAR DNA-binding protein 43, residues 262-414) (domain or fragment)
chain: PKHNSNRQLERSGRFGGNPGGFGNQGGFGNSRGGGAGLGNNQGSNMGGGMNFGAFSINPAMMAAAQAALQSSWGMMGMLASQQNQSGPSGNNQNQGNMQREPNQAFGSGNNSYSGSNSGAAIGWGSASNAGSGSGFNGGFGSSMDSKSSGWGM
With B1, the binding result was “binds”.

These data come from publication doi:10.1101/2021.03.01.433427 (bioRxiv, 2021).
